Measured values: the supplement of paper PMC12783771
± gives the standard deviation of the averaged measurements.

B1: library; numbered along this chain (parent)
chain: MNIQIGELAKRTACPVVTIRFYEQEGLLPPPGRSRGNFRLYGEEHVERLQFIRHCRSLDMPLSDVRTLLSYRKRPDQDCGEVNMLLDEHIRQVESRIGALLELKHHLVELREACSGARPAQSCGILQGLSDCVCDTRGTTAHPSD

How the values were obtained:
[1] = variants of: B1; assay: sfGFP reporter fluorescence (15 h) (µM FITC); higher = higher leak; conditions: library round: Round 0; ligand: none
Summary of the method: (§1)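 Linear PbrR templates were made by PCR, normalized to 5 nM with an Echo, and expressed in BL21 Star (DE3) PANOx-SP extract with the pPbrR-sfGFP reporter plasmid and 30 μg/mL GamS. Echo-assembled 1 μL reactions held 1 µM lead chloride, 30 µM zinc acetate or no metal and were incubated 15 hr at 30 °C. Endpoint sfGFP fluorescence was read on a Synergy Neo2 and expressed as µM FITC using standard curves. Up to three biological replicates were run.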

[2] = variants of: B1; assay: sfGFP reporter fluorescence (15 h) (µM FITC); higher = stronger transcriptional activation; conditions: library round: Round 0
Summary of the method: as §1

Row | Variant | sfGFP reporter fluorescence [1] | sfGFP reporter fluorescence ([2]; ligand: 1 µM Pb) | sfGFP reporter fluorescence ([2]; ligand: 30 µM Zn)
1 | P61A | 0.0665 ± 0.00078 | 0.108 | 1.22 ± 0.092
2 | P61I | 0.0553 ± 0.0067 | 0.06414 ± 0.00052 | 0.112 ± 0.00026
3 | P61V | 0.0651 ± 0.0013 | 0.09 ± 0.0029 | 0.302
4 | P61G | 0.0819 ± 0.0029 | 0.2936 ± 0.0021 | 2.2 ± 0.053
5 | P61M | 0.0682 ± 0.001 | 0.1424 ± 0.0013 | 0.714 ± 0.039
6 | P61Y | 0.0638 ± 0.0015 | 0.0757 ± 0.0018 | 0.148 ± 0.0023
7 | R74A | 0.0596 ± 0.0013 | 0.0669 ± 0.0065 | 0.369 ± 0.079
8 | I52A | 0.06341 ± 0.00052 | 0.0596 ± 0.0023 | 0.077 ± 0.0015
9 | E109I | 0.05919 ± 0.00026 | 0.108 ± 0.0018 | 1.25 ± 0.29
10 | E109H | 0.0581 ± 0.0013 | 0.0867 ± 0.0075 | 0.456 ± 0.012
11 | E109W | 0.061 ± 0.00078 | 0.0872 ± 0.0026 | 1.26 ± 0.035
12 | E109V | 0.0605 ± 0.0042 | 0.107 ± 0.0096 | 1.69 ± 0.1
13 | R33E | 0.06157 ± 0.00052 | 0.06304 ± 0.00052 | 0.0715 ± 0.0031
14 | R33M | 0.0629 ± 0.0013 | 0.0625 ± 0.0013 | 0.0619 ± 0.0015
15 | H89S | 0.0572 ± 0.001 | 0.0579 ± 0.0031 | 0.0627 ± 0.001
16 | H89F | 0.0581 ± 0.0039 | 0.0566 ± 0.0039 | 0.063 ± 0.0021
17 | V82I | 0.0572 ± 0.0015 | 0.0658 ± 0.0023 | 0.676 ± 0.0088
18 | V82H | 0.0594 ± 0.0015 | 0.05974 ± 0.00052 | 0.0586 ± 0.001
19 | V82M | 0.0594 | 0.0586 | 0.06212 ± 0.00026
20 | C123N | 0.0599 ± 0.0018 | 0.0561 ± 0.0015 | 0.05498 ± 0.00052
21 | M60L P61N G128M | 0.822 ± 0.13 | 1.91 ± 0.38 | 3.32 ± 0.64
22 | C114T | 0.0583 ± 0.0015 | 0.05864 ± 0.00052 | 0.0544 ± 0.0039
23 | C114Q | 0.0568 ± 0.001 | 0.05864 ± 0.00052 | 0.0533 ± 0.0018

Row | Variant | sfGFP reporter fluorescence [1] | sfGFP reporter fluorescence ([2]; ligand: 1 µM Pb) | sfGFP reporter fluorescence ([2]; ligand: 30 µM Zn)
24 | C114G | 0.052 ± 0.0015 | 0.0541 ± 0.00078 | 0.05 ± 0.00078
25 | C114V | 0.0566 ± 0.00078 | 0.0555 ± 0.00078 | 0.05186 ± 0.00026
26 | D135A | 0.0733 ± 0.0015 | 0.0834 ± 0.0029 | 0.335 ± 0.0078
27 | D135S | 0.06011 ± 0.00052 | 0.08723 ± 0.00052 | 0.988 ± 0.095
28 | D135L | 0.059 | 0.0898 ± 0.0026 | 1.55 ± 0.24
29 | E7D | 0.0592 ± 0.0018 | 0.0823 ± 0.006 | 1.08 ± 0.044
30 | E7R | 0.06395 ± 0.00026 | 0.102 ± 0.0054 | 1.25 ± 0.16
31 | M60L K104V L107C G128M | 2.296 ± 0.0044 | 4.53 ± 0.18 | 3.641 ± 0.033
32 | M60L K104V L107C G128I | 1.223 ± 0.006 | 3.59 ± 0.22 | 3.12 ± 0.6
33 | E112I | 0.0542 ± 0.0015 | 0.06175 ± 0.00026 | 0.282 ± 0.021
34 | E112C | 0.0616 ± 0.001 | 0.0759 ± 0.0036 | 0.1508 ± 0.0013
35 | E112H | 0.05882 ± 0.00026 | 0.077 ± 0.0057 | 0.424 ± 0.012
36 | M60L D64K L107C | 5.66 ± 0.2 | 5.25 ± 0.066 | 5.27 ± 0.24
37 | C132A | 0.0695 ± 0.0023 | 0.0832 ± 0.0073 | 1.63 ± 0.043
38 | V46S | 0.055 ± 0.0021 | 0.0687 ± 0.00078 | 0.306 ± 0.059
39 | V46Y | 0.0588 ± 0.00078 | 0.0861 ± 0.0067 | 0.6826 ± 0.0049
40 | V46R | 0.0594 ± 0.001 | 0.08704 ± 0.00026 | 0.75 ± 0.054
41 | V46G | 0.05498 ± 0.00052 | 0.059 ± 0.0021 | 0.106 ± 0.013
42 | P119A | 0.05992 ± 0.00026 | 0.0629 ± 0.0029 | 0.477 ± 0.05
43 | L58H | 0.05901 ± 0.00052 | 0.0594 ± 0.0021 | 0.0656 ± 0.0036
44 | L58P | 0.0594 ± 0.0015 | 0.0601 ± 0.001 | 0.0605 ± 0.001
45 | M60L K104V L107C | 1.11 ± 0.099 | 3.04 ± 0.88 | 2.76 ± 0.63
46 | D64K G128M | 0.806 ± 0.04 | 1.86 ± 0.25 | 4.98 ± 0.34

Row | Variant | sfGFP reporter fluorescence [1] | sfGFP reporter fluorescence ([2]; ligand: 1 µM Pb) | sfGFP reporter fluorescence ([2]; ligand: 30 µM Zn)
47 | G6M | 0.0603 ± 0.0013 | 0.0586 ± 0.001 | 0.0654 ± 0.0034
48 | G6Q | 0.0592 ± 0.0023 | 0.05754 ± 0.00052 | 0.0746 ± 0.0039
49 | G6C | 0.0601 ± 0.0026 | 0.05882 ± 0.00026 | 0.0621 ± 0.0018
50 | G6P | 0.061 ± 0.0013 | 0.0601 ± 0.0015 | 0.06084 ± 0.00052
51 | G6R | 0.0605 ± 0.001 | 0.0632 ± 0.00078 | 0.116 ± 0.0039
52 | Q4A | 0.0537 ± 0.0044 | 0.0555 ± 0.0018 | 0.4821 ± 0.0029
53 | K104T | 0.0619 ± 0.0021 | 0.0925 ± 0.015 | 0.865 ± 0.13
54 | P30A | 0.0623 ± 0.001 | 0.0748 ± 0.001 | 0.681 ± 0.087
55 | P30V | 0.0619 ± 0.001 | 0.0924 ± 0.001 | 1 ± 0.0021
56 | P30E | 0.0621 ± 0.0013 | 0.08594 ± 0.00078 | 0.808 ± 0.075
57 | L86A | 0.07 ± 0.0015 | 0.0647 ± 0.0018 | 0.0782 ± 0.0018
58 | M60L P61N L107C G128M | 3.38 ± 0.74 | 4.14 ± 0.57 | 5.5 ± 0.2
59 | F51A | 0.06597 ± 0.00052 | 0.0621 ± 0.0023 | 0.16 ± 0.0083
60 | H54A | 0.05626 ± 0.00026 | 0.0552 ± 0.0029 | 0.07074 ± 0.00052
61 | P61N L107C G128I | 1.6 ± 0.35 | 2.91 ± 0.12 | 3.99 ± 0.4
62 | P61N L107C G128M | 3.31 ± 0.13 | 4.37 ± 0.48 | 5.17 ± 0.11
63 | I90W | 0.0585 ± 0.0023 | 0.0619 ± 0.001 | 0.272 ± 0.0062
64 | I90L | 0.0559 ± 0.0029 | 0.0583 ± 0.0015 | 0.3539 ± 0.0034
65 | I90H | 0.0619 ± 0.0036 | 0.0898 ± 0.0021 | 0.755 ± 0.0078
66 | E94W | 0.0577 ± 0.0039 | 0.05516 ± 0.00026 | 0.143 ± 0.0054
67 | G36L | 0.0588 ± 0.00078 | 0.0621 ± 0.00078 | 0.114 ± 0.011
68 | G36K | 0.06304 ± 0.00052 | 0.09218 ± 0.00026 | 1.18 ± 0.099
69 | L27R | 0.0656 ± 0.0026 | 0.0658 ± 0.0013 | 0.0665 ± 0.00078

Row | Variant | sfGFP reporter fluorescence [1] | sfGFP reporter fluorescence ([2]; ligand: 1 µM Pb) | sfGFP reporter fluorescence ([2]; ligand: 30 µM Zn)
70 | L27P | 0.0607 ± 0.0034 | 0.0612 ± 0.001 | 0.0656 ± 0.0026
71 | L27D | 0.0627 ± 0.0015 | 0.0603 ± 0.0018 | 0.0574 ± 0.0018
72 | L27M | 0.0643 ± 0.0018 | 0.0971 ± 0.0036 | 0.743 ± 0.04
73 | Y41H | 0.0599 ± 0.0029 | 0.0618 ± 0.0023 | 0.0678 ± 0.0026
74 | Y41W | 0.0586 | 0.0658 ± 0.0029 | 0.1977 ± 0.00078
75 | Y41E | 0.0607 ± 0.00078 | 0.0625 ± 0.00078 | 0.0619 ± 0.0015
76 | E88A | 0.061 ± 0.0034 | 0.0859 ± 0.0091 | 0.965 ± 0.07
77 | R111G | 0.0535 | 0.0623 ± 0.001 | 0.343 ± 0.0083
78 | C134V | 0.0667 ± 0.00052 | 0.0894 ± 0.0047 | 1.13 ± 0.25
79 | C134F | 0.081 ± 0.001 | 0.202 ± 0.01 | 1.32 ± 0.51
80 | C134D | 0.06157 ± 0.00052 | 0.0684 ± 0.0018 | 1.004 ± 0.008
81 | F38A | 0.064 ± 0.0039 | 0.0634 ± 0.0026 | 0.379 ± 0.015
82 | D145A | 0.0599 ± 0.0013 | 0.0702 ± 0.0039 | 0.56 ± 0.036
83 | V108R | 0.059 | 0.0788 ± 0.0021 | 0.8752 ± 0.0047
84 | L85Y | 0.0592 ± 0.0039 | 0.0603 ± 0.00078 | 0.253 ± 0.0096
85 | L85C | 0.0607 ± 0.0018 | 0.0577 ± 0.0013 | 0.117 ± 0.0039
86 | L85S | 0.059 ± 0.0021 | 0.059 ± 0.0015 | 0.0627
87 | L85R | 0.0596 ± 0.0018 | 0.0577 ± 0.00078 | 0.0652 ± 0.001
88 | L85N | 0.0564 ± 0.0021 | 0.0575 ± 0.0015 | 0.0612 ± 0.0015
89 | L85E | 0.0605 ± 0.0015 | 0.0586 ± 0.0021 | 0.05662 ± 0.00026
